Experimental data taken from article PMC4535689.

T1: human NGL-2 extracellular fragment (LRR and Ig domains) (human)
T1 sequence (Q9HBW1 whole entry, looked up): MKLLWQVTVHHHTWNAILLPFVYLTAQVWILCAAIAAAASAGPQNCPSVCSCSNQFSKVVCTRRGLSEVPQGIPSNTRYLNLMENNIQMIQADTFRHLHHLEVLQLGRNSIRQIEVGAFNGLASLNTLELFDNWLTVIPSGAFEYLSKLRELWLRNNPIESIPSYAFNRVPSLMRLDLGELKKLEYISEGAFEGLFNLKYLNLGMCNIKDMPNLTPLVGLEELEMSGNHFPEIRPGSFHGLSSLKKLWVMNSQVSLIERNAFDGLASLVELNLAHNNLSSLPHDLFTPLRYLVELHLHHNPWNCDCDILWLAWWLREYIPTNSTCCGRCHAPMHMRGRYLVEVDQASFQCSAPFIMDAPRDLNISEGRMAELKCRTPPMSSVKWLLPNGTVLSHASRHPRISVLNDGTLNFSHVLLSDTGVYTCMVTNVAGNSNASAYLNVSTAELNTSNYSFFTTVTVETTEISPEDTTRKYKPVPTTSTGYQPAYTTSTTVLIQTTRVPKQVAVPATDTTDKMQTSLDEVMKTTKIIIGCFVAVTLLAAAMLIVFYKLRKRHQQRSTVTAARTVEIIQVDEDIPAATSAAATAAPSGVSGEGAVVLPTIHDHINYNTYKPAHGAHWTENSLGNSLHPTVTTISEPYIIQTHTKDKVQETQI


How the values were obtained:
[1] = target: mouse NGL-1 extracellular fragment (LRR and Ig domains) (mouse); test: AUC
[2] = target: T1, human NGL-2 extracellular fragment (LRR and Ig domains) (human); test: AUC

Molecule	Kd [1] [nM]	stoichiometry N [1]	Kd [2] [nM]	stoichiometry N [2]
mouse netrin G1 isoform G1f (LN and LE1 domains) (natural protein)	505	1		
mouse netrin G1 isoform G1j (LN domain only) (natural protein)	1490			

Now from value to molecule:

Kd [1] [nM]	stoichiometry N [1]	Kd [2] [nM]	stoichiometry N [2]	Molecule
		264	1	human netrin G2, full ectodomain (LN domain, LE1-3 and C'), lacking only the GPI anchor site (domain or fragment) DYDICKSWVTTDEGPTWEFYACQPKVMRLKDYVKVKVEPSGITCGDPPERFCSHENPYLCSNECDASNPDLAHPPRLMFDKEEEGLATYWQSITWSRYPSPLEANITLSWNKTVELTDDVVMTFEYGRPTVMVLEKSLDNGRTWQPYQFYAEDCMEAFGMSARRARDMSSSSAHRVLCTEEYSRWAGSKKEKHVRFEVRDRFAIFAGPDLRNMDNLYTRLESAKGLKEFFTLTDLRMRLLRPALGGTYVQRENLYKYFYAISNIEVIGRCKCNLHANLCSMREGSLQCECEHNTTGPDCGKCKKNFRTRSWRAGSYLPLPHGSPNACATAGSFGNCECYGHSNRCSYIDFLNVVTCVSCKHNTRGQHCQHCRLGYYRNGSAELDDENVCIECNCNQIGSVHDRCNETGFCECREGAAGPKCDDCLPTHYWRQGCYPNVCDDDQLLCQNGGTCLQNQRCACPRGYTGVRCEQPRCDPADDDGGLDCDR
		180		human sNetrin G2 ("short" netrin G2, LN and LE1 domains only) (domain or fragment, N-linked glycans at Asn105 and Asn111 (seen in the crystal structure)) DYDICKSWVTTDEGPTWEFYACQPKVMRLKDYVKVKVEPSGITCGDPPERFCSHENPYLCSNECDASNPDLAHPPRLMFDKEEEGLATYWQSITWSRYPSPLEANITLSWNKTVELTDDVVMTFEYGRPTVMVLEKSLDNGRTWQPYQFYAEDCMEAFGMSARRARDMSSSSAHRVLCTEEYSRWAGSKKEKHVRFEVRDRFAIFAGPDLRNMDNLYTRLESAKGLKEFFTLTDLRMRLLRPALGGTYVQRENLYKYFYAISNIEVIGRCKCNLHANLCSMREGSLQCECEHNTTGPDCGKCKKNFRTRSWRAGSYLPLPHGSPNACATAGS
